In paper PMC3542337:

Biological target: E18A DJ-1-FLAG (in HeLa cells) (human) (UniProt Q99497)
Experiment: cross-linking; HeLa cells transfected with FLAG-tagged DJ-1, without or with 20 uM CCCP for 7 hrs; cell extracts treated with 100 uM DSS for 10 min; Western blot with anti-FLAG

E18A DJ-1-FLAG (in HeLa cells) (from UniProt Q99497 1-189) (natural protein)
ratio of dimer (cells treated with CCCP): 68.7
ratio of dimer (cells without CCCP): 57.2
